Results from patent publication US20260207747A1 (ARTIVA BIOTHERAPEUTICS, published 2026).
Positions count from the first letter of the chain named. Names and notes keep the numbering of the source.

T1: human B cell maturation antigen (BCMA), full-length, on cells (human, UniProt Q02223 1-184)
T1 construct: also called CD269; TNFRSF17
T1 sequence: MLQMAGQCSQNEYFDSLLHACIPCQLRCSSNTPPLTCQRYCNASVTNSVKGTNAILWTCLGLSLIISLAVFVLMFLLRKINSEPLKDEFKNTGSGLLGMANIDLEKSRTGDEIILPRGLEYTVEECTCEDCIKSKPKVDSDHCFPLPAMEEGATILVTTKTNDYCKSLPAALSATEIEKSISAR

B1: Antibody #1 (Clone ID 01P08A) (antibody, V domains shown)
VH: QVQLQESGPGLVKPSETLSLTCIVSGGSISSYYWNWIRQPAGKGLEWIGRIYKSGNNIYNPSLQSRVTMSLDTSKNQFSLKLSSVTAADTAVYYCADGGNYFDWFDPWGQGTLVIVSS
VL: QPVLTQPPSASASLGASVTLTCTLSSGYSNYKVDWYQQRPGKGPRFVMRVGTGGIVGSKGDGIPDRFSVLGSGLIRYLTIKNIQEEDESDYHCGADHGSGNNFVYVFGTGTKVTVL
notes: Raised in AlivaMab mice immunised with human BCMA and purified on protein A. Detected with anti-mouse IgG
B2: Antibody #3 (Clone ID 13L15A) (antibody, V domains shown)
VH: QAQLVQSGAEVKRPGASVKVSCKASGYTFISYLLHWVRQAPGQGLEWMVIINPSVGSTSYAQKFQGRVTMTRDTSTSTLYMELSSLRSEDTAVYYCARSSRNYWDGAFDIWGQGTMVTVSS
VL: B1 VL with K32R, I75N, N101S, Y105W, T109G, V113L
notes: as for B1
B3: Antibody #5 (Clone ID 16M16A) (antibody, V domains shown)
VH: QVQLVQSGTEVKKPGASVKVSCKASGSTFTSFFIHWVRQAPGQGLEWMGLINPSGGGTGYALKFQGRVTMTRDTSTSTVYMELSSLRSEDTAVYFCSRGNYEAFDLWGHGTMVTVSS
VL: B1 VL with I75N, N101S
notes: as for B1
B4: Antibody #2 (Clone ID 13I04A) (antibody, V domains shown)
VH: EVQLVESGGGLVQPGGSLRLSCAASGFTSSNYWMSWVRQAPGKGLEWVANIKHDGSEKYFVDSVKGRFTISRDNANNSLYLQMNSLRDEDTAVYYCARMRPWYYDLWGRGTLVTVSS
VL: not shown
notes: Raised in AlivaMab mice immunised with human BCMA and purified on protein A. Detected with anti-mouse IgG; also called 13104A
B5: Antibody #4 (Clone ID 14D14A) (antibody, V domains shown)
VH: QVQLQESGPGLVKPSETLSLTCTVSGGSISSYYWCWIRQSAGKGLEWIGRMYTSGSTNYNPSLKSRVTMSVDTSKNQFSLKLTSVTAADTAVYYCARERGYYYGGGGWIDPWGQGTLVTVSS
VL: not shown
notes: That clone differs in Kabat CDR-H1 (SYYWC against SYYWS)
B6: 13L15A scFv (scFv)
scFv: QPVLTQPPSASASLGASVTLTCTLSSGYSNYRVDWYQQRPGKGPRFVMRVGTGGIVGSKGDGIPDRFSVLGSGLNRYLTIKNIQEEDESDYHCGADHGSGSNFVWVFGGGTKLTVLGGGGSGGGGSGGGGSQAQLVQSGAEVKRPGASVKVSCKASGYTFISYLLHWVRQAPGQGLEWMVIINPSVGSTSYAQKFQGRVTMTRDTSTSTLYMELSSLRSEDTAVYYCARSSRNYWDGAFDIWGQGTMVTVSS
notes: VL-(G4S)3-VH
B7: 16M16A scFv (scFv)
scFv: QPVLTQPPSASASLGASVTLTCTLSSGYSNYKVDWYQQRPGKGPRFVMRVGTGGIVGSKGDGIPDRFSVLGSGLNRYLTIKNIQEEDESDYHCGADHGSGSNFVYVFGTGTKVTVLGGGGSGGGGSGGGGSQVQLVQSGTEVKKPGASVKVSCKASGSTFTSFFIHWVRQAPGQGLEWMGLINPSGGGTGYALKFQGRVTMTRDTSTSTVYMELSSLRSEDTAVYFCSRGNYEAFDLWGHGTMVTVSS
notes: VL-(G4S)3-VH
B8: 13I04A scFv (scFv)
scFv: DIVMTQSPDSLAVSLGERATINCKSSQSVLYSSYNKNYLAWYQQKPGQPPKILIYWASTRESGVPDRFTGSGSGTDFTLTISSLQAEDVAVYYCQQYYSTMYSFGQGTKLEIKGGGGSGGGGSGGGGSEVQLVESGGGLVQPGGSLRLSCAASGFTSSNYWMSWVRQAPGKGLEWVANIKHDGSEKYFVDSVKGRFTISRDNANNSLYLQMNSLRDEDTAVYYCARMRPWYYDLWGRGTLVTVSS
notes: VL-(G4S)3-VH
B9: 01P08A scFv (scFv)
scFv: QPVLTQPPSASASLGASVTLTCTLSSGYSNYKVDWYQQRPGKGPRFVMRVGTGGIVGSKGDGIPDRFSVLGSGLIRYLTIKNIQEEDESDYHCGADHGSGNNFVYVFGTGTKVTVLGGGGSGGGGSGGGGSQVQLQESGPGLVKPSETLSLTCIVSGGSISSYYWNWIRQPAGKGLEWIGRIYKSGNNIYNPSLQSRVTMSLDTSKNQFSLKLSSVTAADTAVYYCADGGNYFDWFDPWGQGTLVIVSS
notes: VL-(G4S)3-VH
B10: Antibody #4 (Clone ID 14D14A_C) (antibody, V domains shown)
VH: B5 VH
VL: not shown
notes: Same VL as 14D14A; The VH differs in Kabat CDR-H1 (SYYWC)

The binders below were run against T1, human B cell maturation antigen (BCMA), … (assay: FACS titration (Scatchard analysis) on HEK-293T cells stably expressing full-length human BCMA; anti-mouse IgG-A647 detection).
Protocol: (§1) Antibodies were generated by immunizing AlivaMab mice with human BCMA and sequenced. The antibody sequences are shown in Table 3, Table 4, Table 5, Table 6, Table 7, and Table 8. […] Antibodies were titrated from 10 nM, with seven 1:5 dilutions. A positive control, mouse anti-human BCMA antibody (Biolegend, cat #357514) was tested in each experiment. Binding readout was measured via secondary detection, using an anti-mouse IgG-A647 nm (dilution 1:10000).

Binder	EC50 [nM]
B1	1.03
B2	0.051
B3	0.04
B4	0.037
B5	0.172

What follows are binders tested against T1, human B cell maturation antigen (BCMA), … (assay: FACS titration (Scatchard analysis) on BCMA-expressing human NCI-H929 cells; anti-mouse IgG-A647 detection).
Protocol: as §1

Binder	EC50 [nM]
B1	3.79
B2	0.235
B3	0.188
B4	0.189
B5	0.827

These binders were tested against T1, human B cell maturation antigen (BCMA), … (assay: Retrogenix Cell Microarray, proteins expressed in human HEK293 cells).

Binder	binding result
B6	binds
B7	binds
B8	binds
B9	binds

Each binder was assayed against T1, human B cell maturation antigen (BCMA), … (assay: FACS titration; cells not named in the heading (value equals the NCI-H929 EC50 of 14D14A in Table 2); heading of Table 6; cells not given).

Binder	EC50 [nM]
B10	0.827
